Target: biotinylated full-length human IGF-I receptor (human) (UniProt P08069)
Experiment: ELISA titration, similar to that of the whole antibody

Chain of Fab fragment of EM164 antibody (VH): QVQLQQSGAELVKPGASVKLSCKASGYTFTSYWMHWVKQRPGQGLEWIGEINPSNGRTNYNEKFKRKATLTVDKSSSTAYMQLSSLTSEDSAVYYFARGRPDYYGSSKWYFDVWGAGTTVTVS
Chain of Fab fragment of EM164 antibody (VL): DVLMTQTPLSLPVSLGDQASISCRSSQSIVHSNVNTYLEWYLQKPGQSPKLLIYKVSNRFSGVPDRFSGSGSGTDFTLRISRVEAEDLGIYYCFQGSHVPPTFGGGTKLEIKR

- Kd: 0.3 nM
Substance: Fab fragment of EM164 antibody

— patent US7538195
